Source: publication PMC7305210, “Mitochondria-adaptor TRAK1 promotes kinesin-1 driven transport in crowded environments” (Nature Communications, 2020)

B1: GFP-labelled KIF5B∆ (KIF5B without the inhibitory domain, amino acids 906-963) (domain or fragment, human, UniProt P33176 1-905, looked up)
chain: MADLAECNIKVMCRFRPLNESEVNRGDKYIAKFQGEDTVVIASKPYAFDRVFQSSTSQEQVYNDCAKKIVKDVLEGYNGTIFAYGQTSSGKTHTMEGKLHDPEGMGIIPRIVQDIFNYIYSMDENLEFHIKVSYFEIYLDKIRDLLDVSKTNLSVHEDKNRVPYVKGCTERFVCSPDEVMDTIDEGKSNRHVAVTNMNEHSSRSHSIFLINVKQENTQTEQKLSGKLYLVDLAGSEKVSKTGAEGAVLDEAKNINKSLSALGNVISALAEGSTYVPYRDSKMTRILQDSLGGNCRTTIVICCSPSSYNESETKSTLLFGQRAKTIKNTVCVNVELTAEQWKKKYEKEKEKNKILRNTIQWLENELNRWRNGETVPIDEQFDKEKANLEAFTVDKDITLTNDKPATAIGVIGNFTDAERRKCEEEIAKLYKQLDDKDEEINQQSQLVEKLKTQMLDQEELLASTRRDQDNMQAELNRLQAENDASKEEVKEVLQALEELAVNYDQKSQEVEDKTKEYELLSDELNQKSATLASIDAELQKLKEMTNHQKKRAAEMMASLLKDLAEIGIAVGNNDVKQPEGTGMIDEEFTVARLYISKMKSEVKTMVKRCKQLESTQTESNKKMEENEKELAACQLRISQHEAKIKSLTEYLQNVEQKKRQLEESVDALSEELVQLRAQEKVHEMEKEHLNKVQTANEVKQAVEQQIQSHRETHQKQISSLRDEVEAKAKLITDLQDQNQKMMLEQERLRVEHEKLKATDQEKSRKLHELTVMQDRREQARQDLKGLEETVAKELQTLHNLRKLFVQDLATRVKKSAEIDSDDTGGSAAQKQKISFLENNLEQLTKVHKQLVRDNADLRCELPKLEKRLRATAERVKALESALKEAKENASRDRKRYQQEVDRIKEA
notes: Constitutively active construct; also called KIF5B∆-GFP; source: SF9 insect cells (FlexiBAC baculovirus), purified (Ni-NTA, 6xHis cleaved by 3C PreScission protease, second Ni-NTA); not shown: GFP, C-terminal, kept; 6xHis, C-terminal, cleaved
B2: unlabelled KIF5B∆ (domain or fragment, human, UniProt P33176 1-905, looked up)
chain: B1 chain
notes: KIF5B, kinesin-1 heavy chain, human, amino acids 1-905; The methods describe only vectors with a C-terminal fluorescent tag; also called recombinant KIF5B∆; source: SF9 insect cells (all KIF5B constructs), purified
B3: mCherry-labelled full-length TRAK1 (natural protein, UniProt Q9UPV9-1 1-953, looked up)
chain: MALVFQFGQPVRAQPLPGLCHGKLIRTNACDVCNSTDLPEVEIISLLEEQLPHYKLRADTIYGYDHDDWLHTPLISPDANIDLTTEQIEETLKYFLLCAERVGQMTKTYNDIDAVTRLLEEKERDLELAARIGQSLLKKNKTLTERNELLEEQVEHIREEVSQLRHELSMKDELLQFYTSAAEESEPESVCSTPLKRNESSSSVQNYFHLDSLQKKLKDLEEENVVLRSEASQLKTETITYEEKEQQLVNDCVKELRDANVQIASISEELAKKTEDAARQQEEITHLLSQIVDLQKKAKACAVENEELVQHLGAAKDAQRQLTAELRELEDKYAECMEMLHEAQEELKNLRNKTMPNTTSRRYHSLGLFPMDSLAAEIEGTMRKELQLEEAESPDITHQKRVFETVRNINQVVKQRSLTPSPMNIPGSNQSSAMNSLLSSCVSTPRSSFYGSDIGNVVLDNKTNSIILETEAADLGNDERSKKPGTPGTPGSHDLETALRRLSLRRENYLSERRFFEEEQERKLQELAEKGELRSGSLTPTESIMSLGTHSRFSEFTGFSGMSFSSRSYLPEKLQIVKPLEGSATLHHWQQLAQPHLGGILDPRPGVVTKGFRTLDVDLDEVYCLNDFEEDDTGDHISLPRLATSTPVQHPETSAHHPGKCMSQTNSTFTFTTCRILHPSDELTRVTPSLNSAPTPACGSTSHLKSTPVATPCTPRRLSLAESFTNTRESTTTMSTSLGLVWLLKERGISAAVYDPQSWDRAGRGSLLHSYTPKMAVIPSTPPNSPMQTPTSSPPSFEFKCTSPPYDNFLASKPASSILREVREKNVRSSESQTDVSVSNLNLVDKVRRFGVAKVVNSGRAHVPTLTEEQGPLLCGPPGPAPALVPRGLVPEGLPLRCPTVTSAIGGLQLNSGIRRNRSFPTMVGSSMQMKAPVTLTSGILMGAKLSKQTSLR
notes: TRAK1 (trafficking kinesin protein 1), cDNA KIAA1042 from the Kazusa DNA Research Institute; 953 residues by the printed region 636-953; also called mCherry-TRAK1; trafficking kinesin protein 1; source: HEK293T cells, transfected, purified (StrepTactinXT, eluted by TEV cleavage of the N-terminal tag, Superose 6 SEC); not shown: mCherry, N-terminal, kept; TwinStrep-FLAG-Halo, N-terminal, cleaved
B4: KIF5B-GFP-mCherry-TRAK1 complex (complex)
chain 1: MADLAECNIKVMCRFRPLNESEVNRGDKYIAKFQGEDTVVIASKPYAFDRVFQSSTSQEQVYNDCAKKIVKDVLEGYNGTIFAYGQTSSGKTHTMEGKLHDPEGMGIIPRIVQDIFNYIYSMDENLEFHIKVSYFEIYLDKIRDLLDVSKTNLSVHEDKNRVPYVKGCTERFVCSPDEVMDTIDEGKSNRHVAVTNMNEHSSRSHSIFLINVKQENTQTEQKLSGKLYLVDLAGSEKVSKTGAEGAVLDEAKNINKSLSALGNVISALAEGSTYVPYRDSKMTRILQDSLGGNCRTTIVICCSPSSYNESETKSTLLFGQRAKTIKNTVCVNVELTAEQWKKKYEKEKEKNKILRNTIQWLENELNRWRNGETVPIDEQFDKEKANLEAFTVDKDITLTNDKPATAIGVIGNFTDAERRKCEEEIAKLYKQLDDKDEEINQQSQLVEKLKTQMLDQEELLASTRRDQDNMQAELNRLQAENDASKEEVKEVLQALEELAVNYDQKSQEVEDKTKEYELLSDELNQKSATLASIDAELQKLKEMTNHQKKRAAEMMASLLKDLAEIGIAVGNNDVKQPEGTGMIDEEFTVARLYISKMKSEVKTMVKRCKQLESTQTESNKKMEENEKELAACQLRISQHEAKIKSLTEYLQNVEQKKRQLEESVDALSEELVQLRAQEKVHEMEKEHLNKVQTANEVKQAVEQQIQSHRETHQKQISSLRDEVEAKAKLITDLQDQNQKMMLEQERLRVEHEKLKATDQEKSRKLHELTVMQDRREQARQDLKGLEETVAKELQTLHNLRKLFVQDLATRVKKSAEIDSDDTGGSAAQKQKISFLENNLEQLTKVHKQLVRDNADLRCELPKLEKRLRATAERVKALESALKEAKENASRDRKRYQQEVDRIKEAVRSKNMARRGHSAQIAKPIRPGQHPAASPTHPSAIRGGGAFVQNSQPVAVRGGGGKQV
chain 2: B3 chain
notes: KIF5B, kinesin-1 heavy chain, human, amino acids 1-963; as m1; TRAK1, cDNA KIAA1042; as m5; Only traces of mCherry-TRAK1 were analysed, so that the moving particles are complexes; also called KIF5B-TRAK1 transport complex; source: the two purified proteins (m1 from SF9, m5 from HEK293T) pre-incubated 10 min on ice; not shown: GFP, C-terminal, kept; 6xHis, C-terminal, cleaved; mCherry, N-terminal, …

Experiments:
[1] = target: B3; test: single-molecule TIRF microscopy, two-colour co-movement on immobilised microtubules; KIF5B construct and 175 nM TRAK1 construct pre-incubated 10 min on ice, flushed onto bare immobilised microtubules in motility buffer with 1 mM Mg-ATP; room temperature; for the complexes traces of the mCherry-TRAK1 channel analysed; details: both partners purified
[2] = target: the molecule itself; test: single-molecule fluorescence intensity distributions (TIRF) with labelling efficiencies from SEC absorption; intensity distributions of KIF5B∆-mCherry compared with mCherry-TRAK1 in the motility experiments; labelling efficiencies about 22% and about 88%
[3] = target: B3; test: TIRF microscopy, reconstituted transport of mitochondria on immobilised microtubules; 2 nM unlabeled KIF5B∆, 100 nM mCherry-TRAK1 and 10 µg isolated mitochondria-GFP (4T1 cells) pre-incubated on ice, flushed onto immobilised microtubules; room temperature; details: both partners purified
[4] = target: B1; test: single-molecule fluorescence intensity distributions (TIRF) with labelling efficiencies from SEC absorption; intensity distributions of KIF5B∆-mCherry compared with mCherry-TRAK1 in the motility experiments; labelling efficiencies about 22% and about 88%; details: both partners purified
[5] = target: microtubules polymerized from porcine tubulin (porcine, UniProt P02550 1-451; Q767L7 1-444, Alexa Fluor 647 NHS ester on 20% of the tubulin in fluorescently labeled microtubules | Alexa Fluor 647 NHS ester on 20% of the tubulin in fluorescently labeled microtubules); test: single-molecule TIRF microscopy, two-colour co-movement on immobilised microtubules; KIF5B construct and 175 nM TRAK1 construct pre-incubated 10 min on ice, flushed onto bare immobilised microtubules in motility buffer with 1 mM Mg-ATP; room temperature; for the complexes traces of the mCherry-TRAK1 channel analysed; details: both partners purified

B1
binding result [1]: binds
stoichiometry N [2]: 2

B2
binding result [3]: binds

B3
stoichiometry N [4]: 1 TRAK1 dimer per KIF5B dimer
stoichiometry N [2]: 2

B4
median interaction time with microtubules [5]: 19.3 s
